Consider four substances from US20160176924A1, “MODIFIED PEPTIDES AS POTENT INHIBITORS OF THE PSD-95/NMDA RECEPTOR INTERACTION” (priority 2008, published 2016).

Holding throughout (experiment): FP competition, fluorescent NR2B probe
For experiment [1], the target named is HIS-PDZ2 protein (PSD-95 PDZ2, residues 155-249, with tag …) (human) (UniProt P78352).
Experiment [2] concerns the target HIS-PDZ1 protein (PSD-95 PDZ1, residues 61-151, with tag …) (human) (UniProt P78352).
In experiment [3] the target is HIS-PDZ1-2 protein (PSD-95 PDZ1-2 tandem, residues 61-249, with tag …) (human) (UniProt P78352).

Consider “ESDV (8) with D-Glu instead of L-Glu (peptide)”, for which the fold impairment of affinity relative to peptide 1 in experiment [1] and in experiment [2] was > 25 fold each time.
Turning to SDV (9) (peptide), the fold increase in Ki compared to peptide 1 was > 30 fold in experiment [1] and > 20 fold in experiment [2].
As a reminder, the Ki is the equilibrium dissociation constant of an inhibitor or competing ligand from its target. A high value points to lower affinity. With TAV (49) (peptide), the results for the Ki in experiment [1] and in experiment [2] were 37 µM and 42 µM, respectively.
As for Tat-NR2B (3) (peptide), the Ki in experiment [3] turned out to be 9.8 µM; in experiment [1], 4.4 µM; in experiment [2], 14 µM.
